Test results: paper PMC7054990

Biological target: ALIX BRO1 domain (human)
Experiment: recruitment to supported lipid bilayers (time-lapse confocal fluorescence microscopy); supported bilayers DOPC:DOPE:PI:LBPA (4.99:2:1:2 mol) preincubated 40 min with 3.7 µM ALIX BRO1 domain or mutant, unbound protein removed, then 0.64 µM CHMP4B-488 for 25 min; ALIX buffer: 25 mM Hepes pH 7.4, 0.3 mM BAPTA, 0.3 mM NTA, 0.3 mM hydroxyethyl EDTA, 686 µM CaCl2 (20 µM free calcium)

ALIX BRO1 domain (human), sequence (Q9WU78 1-359): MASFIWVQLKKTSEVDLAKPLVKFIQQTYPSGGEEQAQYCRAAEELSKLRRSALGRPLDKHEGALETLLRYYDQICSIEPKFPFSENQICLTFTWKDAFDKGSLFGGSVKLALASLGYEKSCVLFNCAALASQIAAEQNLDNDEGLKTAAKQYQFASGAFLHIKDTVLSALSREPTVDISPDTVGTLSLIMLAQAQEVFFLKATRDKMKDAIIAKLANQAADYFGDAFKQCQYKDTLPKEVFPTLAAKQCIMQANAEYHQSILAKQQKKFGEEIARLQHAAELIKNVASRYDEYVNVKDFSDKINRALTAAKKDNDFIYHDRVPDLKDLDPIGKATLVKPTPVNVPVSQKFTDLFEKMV

B1: Alexa Fluor 488 CHMP4B (natural protein)
chain: MSVFGKLFGAGGGKAGKGGPTPQEAIQRLRDTEEMLSKKQEFLEKKIEQELTAAKKHGTKNKRAALQALKRKKRYEKQLAQIDGTLSTIEFQREALENANTNTEVLKNMGYAAKAMKAAHDNMDIDKVDELMQDIADQQELAEEISTAISKPVGFGEEFDEDELMAELEELEQEELDKNLLEISGPETVPLPNVPSIALPSKPAKKKEEEDDDMKELENWAGSM
modifications: Alexa Fluor 488 (labelled with Alexa Fluor 488 tetrafluorophenyl ester, 1:2 protein:dye)
Binder B1 has an apparent t1/2 of recruitment of 5 min.
